# US8283180B2, “Periodic acid-schiff staining with detection in the infrared range” (Amicus Therapeutics, Inc., priority 2007, dated 2012)
# Tested on: PM-12 cells
# Test: PAS staining of Pompe fibroblasts with IR fluorescence detection after diastase digestion
# Type: cell-based, human
# Conditions: 20,000 cells/well; 0.1% diastase, 5 to 60 minutes; detection at 800 nm; FIG. 2
# Method: PM-11 Pompe fibroblasts were obtained from Dr. W. J. Kleijer, Department of Cell Biology & Genetics, Erasmus University, The Netherlands. PM-12 Pompe fibroblasts were purchased from Coriell (catalog #GM03329). CRL-2076 fibroblasts (negative control) were purchased from American Type Culture Collection (Manassas, Va.). All fibroblast lines were routinely cultured at 37° C., 5% CO2, in growth medium consisting of Dulbecco's Modified […] Medium containing 15% fetal bovine serum (Hyclone, Logan, Utah), 100 U/mL penicillin; 100 μg/mL streptomycin, and 2 mM L-glutamine.
# Prior to the assay, borosilicate coverslip glass bottom 96-well black plates (Nunc; catalog #164588) are coated with superfibronectin (Sigma). […] Briefly, 100 μL of 5 μg/mL superfibronectin (Sigma) is pipetted into each well and the plate is incubated at 37° C. for 2 hours. […]
# Following the overnight incubation, the plate is read on a laser-based Odyssey IR scanner (Li-Cor, Inc.) at emission wavelengths of 700 nm (near-IR) or 800 nm (IR). The detector counts IR and near-IR fluorescence emissions independently or simultaneously from the samples, and reports these counts as arbitrary units. The detector scans across an entire microtiter plate, thus can read two fluorophores from any microtiter formatted sample array (96-well, 384-well, or other) within a few minutes. […]
molecule,measurement,value
"diastase: α-amylase type VI-B from porcine pancreas; breaks down glycogen, used as negative control for PAS staining (protein, UniProt P00690 16-511, looked up) Pancreatic alpha-amylase: QYAPQTQSGRTSIVHLFEWRWVDIALECERYLGPKGFGGVQVSPPNENIVVTNPSRPWWERYQPVSYKLCTRSGNENEFRDMVTRCNNVGVRIYVDAVINHMCGSGAAAGTGTTCGSYCNPGNREFPAVPYSAWDFNDGKCKTASGGIESYNDPYQVRDCQLVGLLDLALEKDYVRSMIADYLNKLIDIGVAGFRIDASKHMWPGDIKAVLDKLHNLNTNWFPAGSRPFIFQEVIDLGGEAIQSSEYFGNGRVTEFKYGAKLGTVVRKWSGEKMSYLKNWGEGWGFMPSDRALVFVDNHDNQRGHGAGGASILTFWDARLYKVAVGFMLAHPYGFTRVMSSYRWARNFVNGQDVNDWIGPPNNNGVIKEVTINADTTCGNDWVCEHRWRQIRNMVWFRNVVDGQPFANWWANGSNQVAFGRGNRGFIVFNNDDWQLSSTLQTGLPGGTYCDVISGDKVGNSCTGIKVYVSSDGTAQFSISNSAEDPFIAIHAESKL",time-dependent decrease in PAS stain IR fluorescence signal,about 2 fold
